T1: myostatin (UniProt O14793 267-375, limits assumed)
T1 sequence (looked up): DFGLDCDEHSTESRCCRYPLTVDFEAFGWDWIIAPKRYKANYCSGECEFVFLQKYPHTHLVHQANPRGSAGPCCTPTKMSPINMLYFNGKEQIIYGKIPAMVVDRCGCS

T2: activin A (UniProt P08476 311-426)
T2 sequence (looked up): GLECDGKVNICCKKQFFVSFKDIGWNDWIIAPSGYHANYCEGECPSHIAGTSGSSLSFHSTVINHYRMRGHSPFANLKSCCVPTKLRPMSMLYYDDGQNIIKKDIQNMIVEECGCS

T3: GDF-11 (UniProt O95390 299-407)
T3 sequence (looked up): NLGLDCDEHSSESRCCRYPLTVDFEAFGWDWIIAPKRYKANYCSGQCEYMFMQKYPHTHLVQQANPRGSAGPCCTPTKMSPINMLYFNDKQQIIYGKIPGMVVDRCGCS


Experiments:
myostatin [1] = target: T1, myostatin; test: cell-based or functional assay
activin A = target: T2, activin A; test: cell-based or functional assay
GDF-11 = target: T3, GDF-11; test: cell-based or functional assay
myostatin [2] = target: T1, myostatin; test: BIAcore solution competition: soluble receptor titrated against 4 nM myostatin, free myostatin captured on immobilized human ActRIIB-ECD/Fc (R&D Systems) on a CM5 chip
Method: Blocking assays were carried out using immobilized human ActRIIB-ECD/Fc (R&D Systems, Minneapolis, Mn.) on a CM5 chip (Biacore, Inc., Piscataway, N.J.) in the presence and absence of each of the two soluble receptors ActRIIB-ECD/Fc and ActRIIB5/Fc using the BIAcore® assay system according to the manufacturer's instructions.
100% myostatin binding signal was determined in the absence of receptor in solution. Various concentrations of the soluble receptors were diluted in sample buffer and incubated with 4 nM myostatin before being injected over the receptor surface. Since only free myostatin molecules were able to bind to the chip, a decreased binding response with increasing concentration of the receptors indicated binding of the receptors to myostatin in solution. Plotting the binding signal vs. concentration of soluble receptor, ActRIIB-ECD/Fc and ActRIIB5/Fc were calculated to have an EC₅₀ of approximately 18 nM and 7 nM respectively.

myostatin-neutralizing activity IC50 (nM) vs. 4 nM myostatin; pMARE-luc C2C12 luciferase reporter (myostatin [1]) [nM] | activin A neutralizing activity IC50 (nM) vs. 20 nM activin; pMARE-luc C2C12 luciferase reporter (activin A) [nM] | GDF-11-neutralizing activity IC50 (nM) vs. 4 nM GDF-11; pMARE-luc C2C12 luciferase reporter (GDF-11) [nM] | EC50 (myostatin [2]) [nM] | Binder
51.1 | 340 | 89.9 | ~18 | huActRIIB-ECD/Fc (Fc fusion, not shown: human IgG1 Fc, fused directly (no linker)) SGRGEAETRECIYYNANWELERTNQSGLERCEGEQDKRLHCYASWRNSSGTIELVKKGCWLDDFNCYDRQECVATEENPQVYFCCCEGNFCNERFTHLPEAGGPEV
29.7 | 156 | 90.6 | ~7 | huActRIIB5/Fc (Fc fusion, also called human activin type IIB5 receptor Fc fusion; not shown: human IgG1 Fc) SGRGEAETRECIYYNANWELERTNQSGLERCEGEQDKRLHCYASWRNSSGTIELVKKGCWLDDFNCYDRQECVATEENPQVYFCCCEGNFCNERFTHLPEAGGPEGPWASTTIPSGGPEATAAAGDQGSGALWLCLEGPAHEGGGGGGGG

— patent publication US20140088008A1 (Amgen, published 2014)
